Test results as given in publication PMC4402527.
Substitutions are numbered along the chain they refer to. Names and notes keep the numbering of the source. Each block holds one binder with its values, some of them ahead of it.

Target: eIF2β of rabbit reticulocyte lysate (rabbit (endogenous in reticulocyte lysate)) (UniProt P41035)
Chain of UniProt P41035 (P41035 whole entry): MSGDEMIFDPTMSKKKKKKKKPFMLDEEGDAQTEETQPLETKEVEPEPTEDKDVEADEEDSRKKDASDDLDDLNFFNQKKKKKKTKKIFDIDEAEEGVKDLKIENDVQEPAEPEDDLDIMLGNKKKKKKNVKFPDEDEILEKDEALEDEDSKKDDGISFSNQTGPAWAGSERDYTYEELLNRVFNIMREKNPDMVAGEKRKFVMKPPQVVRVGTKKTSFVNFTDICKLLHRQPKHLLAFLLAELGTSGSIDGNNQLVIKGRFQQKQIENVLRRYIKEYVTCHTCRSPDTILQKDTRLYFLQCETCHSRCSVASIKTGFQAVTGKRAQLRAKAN

fold stimulation of m7GpppG-Bcl2 5′UTR-FL-poly(A)35 mRNA (25 ng) translation in nuclease treated RRL by 1.6 pmol protein (luciferase): 1.65 fold
B1: Recombinant mutant DAP5, E862K (natural protein)
chain: MESAIAEGGASRFSASSGGGGSRGAPQHYPKTAGNSEFLGKTPGQNAQKWIPARSTRRDDNSAANNSANEKERHDAIFRKVRGILNKLTPEKFDKLCLELLNVGVESKLILKGVILLIVDKALEEPKYSSLYAQLCLRLAEDAPNFDGPAAEGQPGQKQSTTFRRLLISKLQDEFENRTRNVDVYDKRENPLLPEEEEQRAIAKIKMLGNIKFIGELGKLDLIHESILHKCIKTLLEKKKRVQLKDMGEDLECLCQIMRTVGPRLDHERAKSLMDQYFARMCSLMLSKELPARIRFLLQDTVELREHHWVPRKAFLDNGPKTINQIRQDAVKDLGVFIPAPMAQGMRSDFFLEGPFMPPRMKMDRDPLGGLADMFGQMPGSGIGTGPGVIQDRFSPTMGRHRSNQLFNGHGGHIMPPTQSQFGEMGGKFMKSQGLSQLYHNQSQGLLSQLQGQSKDMPPRFSKKGQLNADEISLRPAQSFLMNKNQVPKLQPQITMIPPSAQPPRTQTPPLGQTPQLGLKTNPPLIQEKPAKTSKKPPPSKEELLKLTETVVTEYLNSGNANEAVNGVREMRAPKHFLPEMLSKVIILSLDRSDEDKEKASSLISLLKQEGIATSDNFMQAFLNVLDQCPKLEVDIPLVKSYLAQFAARAIISELVSISELAQPLESGTHFPLFLLCLQQLAKLQDREWLTELFQQSKVNMQKMLPEIDQNKDRMLEILEGKGLSFLFPLLKLEKELLKQIKLDPSPQTIYKWIKDNISPKLHVDKGFVNILMTSFLQYISSEVNPPSDETDSSSAPSKEQLEQEKQLLLSFKPVMQKFLHDHVDLQVSALYALQVHCYNSNFPKGMLLRFFVHFYDMEIIKEEAFLAWKEDITQEFPGKGKALFQVNQWLTWLETAEEEESEEEAD

fold stimulation of m7GpppG-Bcl2 5′UTR-FL-poly(A)35 mRNA (25 ng) translation in nuclease treated RRL by 1.6 pmol protein (luciferase): 4 fold
B2: Recombinant human DAP5 (1–907) (natural protein)
chain: B1 chain with K862E
